In one data set the target is APOBEC3A E72Q (human, UniProt P31941 1-199, E72Q). As to the kind of experiment: fluorescence anisotropy. (In general: In fluorescence polarisation assays a small probe gives low polarisation when free and higher when bound to something large.)
A further data set addresses APOBEC3A E72A/C171A (human, UniProt P31941 1-199, E72A;C171A). As to the kind of experiment: fluorescence anisotropy.

In article PMC4874493 one finds Kd data, which are given here for one molecule.

APOBEC3A E72A/C171A, sequence (P31941 whole entry E72A/C171A): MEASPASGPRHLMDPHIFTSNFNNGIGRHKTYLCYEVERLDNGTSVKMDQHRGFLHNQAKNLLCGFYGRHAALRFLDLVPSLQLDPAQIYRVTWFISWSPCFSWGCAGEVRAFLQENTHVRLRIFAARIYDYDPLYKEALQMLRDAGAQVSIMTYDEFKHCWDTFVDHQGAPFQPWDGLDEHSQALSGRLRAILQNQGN
APOBEC3A E72Q, sequence (P31941 whole entry E72Q): as the sequence (P31941 whole entry E72A/C171A) above, with A72Q, A171C counted along it

A word on the Kd: it is the concentration at which binding is half-saturated. For TTTTTTTTTTTTTTT (ssDNA) [polyT (TTT)], the dissociation constant (Kd) with APOBEC3A E72Q worked out at 205 ± 20 nM; with APOBEC3A E72A/C171A, 502 ± 27 nM.
